Experiments:
[1] = molecular target: T1, yeast PCNA, N-terminally His-tagged Pol30 (S. cerevisiae, UniProt P15873 1-258); assay: pull-down
T1 sequence: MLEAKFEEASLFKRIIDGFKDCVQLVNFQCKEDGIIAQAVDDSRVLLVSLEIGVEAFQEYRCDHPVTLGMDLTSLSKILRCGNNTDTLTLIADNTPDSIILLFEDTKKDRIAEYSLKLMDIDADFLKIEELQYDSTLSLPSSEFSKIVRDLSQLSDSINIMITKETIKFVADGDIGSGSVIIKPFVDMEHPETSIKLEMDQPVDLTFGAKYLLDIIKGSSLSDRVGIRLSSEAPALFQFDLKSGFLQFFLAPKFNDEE

[2] = molecular target: chicken N-terminally His-tagged PCNA (recombinant) (chicken, UniProt Q9DEA3 1-262); assay: pull-down
Sequence of chicken N-terminally His-tagged PCNA (recombinant) (Q9DEA3 whole entry): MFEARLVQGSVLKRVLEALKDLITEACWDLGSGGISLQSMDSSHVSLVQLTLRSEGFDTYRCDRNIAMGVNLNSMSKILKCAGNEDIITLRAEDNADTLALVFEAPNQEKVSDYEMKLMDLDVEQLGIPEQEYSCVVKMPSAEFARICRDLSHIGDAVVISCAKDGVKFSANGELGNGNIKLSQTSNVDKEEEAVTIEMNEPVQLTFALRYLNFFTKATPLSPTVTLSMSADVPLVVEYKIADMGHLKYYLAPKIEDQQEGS

Binder	binding result [1]	binding result [2]
YSSNGKLLTYFRKHVKDT (domain or fragment) [GSTscc2PIP (GST fused with the last 18 amino acids of yeast Scc2, aa 1476-1493, wild-type PIP)]	binds	–
GST-NIPBL WT (C-terminus of chicken NIPBL, aa 2582-2783, fused to GST) (domain or fragment) ANSKITEEVKRSIVKQYLDFKLLMEHLDPDEEEEDGEVSASTNARNKAITSLLGGGSPKNNAAETEDDESDGEDRGGGTSGSLRRSKRNSDSTELASQMNESVDVMDVIAICCPKYKDRPQIARVVQKTSNGFSVQWMAGSYSGSWTEAKRRDGRKLVPWVDTIKESDIIYKKIALTSANKLTNKVVQTLRSLYAAKDGTSS	–	binds
GST-NIPBL pip1 (chicken NIPBL aa 2582-2783 with PIP1 mutated Q2597A,L2599A,F2601A, fused to GST) (domain or fragment) ANSKITEEVKRSIVKAYADAKLLMEHLDPDEEEEDGEVSASTNARNKAITSLLGGGSPKNNAAETEDDESDGEDRGGGTSGSLRRSKRNSDSTELASQMNESVDVMDVIAICCPKYKDRPQIARVVQKTSNGFSVQWMAGSYSGSWTEAKRRDGRKLVPWVDTIKESDIIYKKIALTSANKLTNKVVQTLRSLYAAKDGTSS	–	binds
TNKVVQTLRSLYAAKDGTSS [GST-NIPBL-PIP2 (chicken NIPBL aa 2764-2783 fused to GST)]	–	binds
TNKVVATARSLAAAKDGTSS [GST-NIPBL-pip2 (chicken NIPBL aa 2764-2783 with Q2769A,L2771A,Y2775A, fused to GST)]	–	binds

— paper doi:10.1101/2022.09.16.508217 (bioRxiv, 2022)
